Experimental data from US7919262B2, “14-3-3 proteins for diagnosis of Parkinson's disease” (The UAB Research Foundation, priority 2007, dated 2011).

Experiments:
[1] = test system: SK-N-BE(2)-M17 (M17) cells; experiment: Rotenone toxicity in stably transfected cell lines, LDH release; assay type: cell-based; details: for rotenone-induced cell death, % of that in control cells: 1 μM rotenone, LDH release; for rotenone-induced cell death, % of that in control cells / protection against rotenone toxicity (LDH release): 48 hours; for protection against rotenone toxicity (LDH release): rotenone at varying concentrations
Protocol: Cell lines stably-transfected with either 14-3-3θ or empty vector were treated with varying concentrations of rotenone (0-25 μM) for 24 hours (FIG. 6A), 30 hours (FIG. 6B), or 48 hours (FIG. 6C). Cell death was assayed by LDH release into the culture media. LDH release into media was normalized to total LDH release for each well. […] Rater was blind to experimental condition. n=8 for each experimental condition. *p<0.05, ***p<0.001 (Bonferroni's multiple comparison test).
M17 cell lines stably-transfected with either a 14-3-3 isoform or empty vector were treated with varying concentrations of rotenone (0-25 μM) for 48 hours. Cell death was assayed by LDH release into the culture media. LDH release into media was normalized to total LDH release for each well. […] Results reflect two to three independent experiments with at least two replicates per experiment. *p<0.05, **p<0.01, ***p<0.001 (Bonferroni's multiple comparison test).
Additional studies were performed to evaluate the effect of 14-3-3 polypeptide isoforms in mammalian cells. In these studies, cDNA clones for the 14-3-3 polypeptide β, γ, ε, η, θ, and σ isoforms were subcloned into the mammalian expression vector pcDNA 3.1/V5/His (Invitrogen). The polypeptide expressed from this vector contains the particular 14-3-3 isoform with a V5 and a His6 tag at the C-terminal end. […] SK-N-BE(2)-M17 (M17) cells, a dopaminergic-producing human neuroblastoma cell line, were transfected with each isoform or empty vector using Superfect, and stably-transfected cells were selected for in the presence of G418.
The M17 14-3-3θ clones were examined for their resistance to rotenone (0-25 μM). M17 cell lines stably transfected with either 14-3-3θ or empty vector were treated with rotenone for 24 (FIG. 6A), 30 (FIG. 6B) or 48 hours (FIG. 6C). Cell death was assayed by […] (LDH) release into the culture media using the LDH assay kit from Roche. LDH release into media was normalized to total LDH release for each well. Results reflect three independent experiments with at least two replicates per experiment.
Stable M17 cell lines overexpressing these other isoforms were treated with rotenone at varying concentrations, and then cell death was assayed at 48 hours by LDH release. […]

H4 cells = experiment: α-syn aggregation assay (synT + synphilin co-transfection); assay type: cell-based; details: isoform co-transfected with synT and synphilin; 24 hours after transfection; vs empty vector
Protocol: H4 cells were cotransfected with either empty vector or a 14-3-3 isoform along with synT and synphilin. 24 hours after transfection, cells were fixed and stained with a monoclonal antibody against α-syn. Cells that stained for α-syn were scored as positive or negative for α-syn aggregates, with the rater blind to experimental condition. Results reflect three independent experiments with four replicates per experiment. ***p<0.001 (Bonferroni's multiple comparison test).
To evaluate this hypothesis the effect of increased 14-3-3 polypeptide expression on α-syn aggregation was evaluated. In this experiment, the model of McLean et al., in which α-syn/green fluorescent protein (GFP) fusion protein (synT) forms visible aggregates in cells when expressed with synphilin (McLean, P J et al., Neuroscience, 104:901-12, 2001) was used. This system has been used to evaluate the effect of different polypeptides on α-syn aggregation (Kiucken, J., et al, J Biol Chem, 279:4625-31, 2004). Briefly, H4 cells were co-transfected with either empty vector or a vector containing nucleic acid encoding a 14-3-3 isoform, along with synT and synphilin. Twenty-four hours after transfection, cells were fixed and stained with a monoclonal antibody against α-syn. Results are shown in FIG. 3 and reflect three independent experiments with 4 replicates per experiment. […] These are the same 14-3-3 isoforms that were decreased in α-syn transgenic mice (see FIG. 2).
Primers against each of the human 14-3-3 isoforms were designed using Primer3. […] All cells stained for α-syn were scored as positive or negative for α-syn aggregates, with the rater blind to experimental condition. • α-syn toxicity assay H4 cells were transfected with α-syn and either empty vector control or a 14-3-3 isoform using Superfect transfection reagent (Qiagen). 24 hours after transfection, toxicity was measured by the amount of adenylate kinase released into the media using the ToxiLight™ kit (Cambrex). • Creation of stable cell lines Each 14-3-3 isoform was subcloned into the mammalian expression vector mcDNA3.1/V5-His (Invitrogen). […]

Row | Molecule | rotenone-induced cell death, % of that in control cells ([1]; stable overexpression) | protection against rotenone toxicity (LDH release) ([1]; stable overexpression) | decrease in the number of H4 cells displaying α-syn aggregates (H4 cells) | protection against rotenone at low doses ([1]; 0.04 and 0.2 μM rotenone) | protection against rotenone at higher doses ([1]; 1 and 5 μM rotenone) | resistance to rotenone toxicity compared to control cells (LDH release) ([1]; stable overexpression, rotenone 0-25 μM, 24, 30 or 48 hours)
1 | 14-3-3γ: 14-3-3 polypeptide γ isoform, overexpressed from expression vector | 55% | prominent reduction in rotenone-induced toxicity | 40% |  |  | 
2 | 14-3-3θ: 14-3-3 polypeptide θ isoform, overexpressed from V5/His-tagged pcDNA3.1 vector (or as transgene in C. elegans) (protein, UniProt P27348 1-245, looked up, V5/His tag) 14-3-3 protein theta: MEKTELIQKAKLAEQAERYDDMATCMKAVTEQGAELSNEERNLLSVAYKNVVGGRRSAWRVISSIEQKTDTSDKKLQLIKDYREKVESELRSICTTVLELLDKYLIANATNPESKVFYLKMKGDYFRYLAEVACGDDRKQTIDNSQGAYQEAFDISKKEMQPTHPIRLGLALNFSVFYYEILNNPELACTLAKTAFDEAIAELDTLNEDSYKDSTLIMQLLRDNLTLWTSDSAGEECDAAEGAEN | 45% |  | 40% | Mild protection | more prominent protection | more resistant to rotenone toxicity
3 | 14-3-3ζ: 14-3-3 polypeptide ζ isoform, overexpressed from expression vector (protein, UniProt P63104 1-245, looked up) 14-3-3 protein zeta/delta: MDKNELVQKAKLAEQAERYDDMAACMKSVTEQGAELSNEERNLLSVAYKNVVGARRSSWRVVSSIEQKTEGAEKKQQMAREYREKIETELRDICNDVLSLLEKFLIPNASQAESKVFYLKMKGDYYRYLAEVAAGDDKKGIVDQSQQAYQEAFEISKKEMQPTHPIRLGLALNFSVFYYEILNSPEKACSLAKTAFDEAIAELDTLSEESYKDSTLIMQLLRDNLTLWTSDTQGDEAEAGEGGEN | 78% | some protection |  |  |  | 
4 | 14-3-3ε: 14-3-3 polypeptide ε isoform, overexpressed from expression vector (protein, UniProt P62258 1-255, looked up) 14-3-3 protein epsilon: MDDREDLVYQAKLAEQAERYDEMVESMKKVAGMDVELTVEERNLLSVAYKNVIGARRASWRIISSIEQKEENKGGEDKLKMIREYRQMVETELKLICCDILDVLDKHLIPAANTGESKVFYYKMKGDYHRYLAEFATGNDRKEAAENSLVAYKAASDIAMTELPPTHPIRLGLALNFSVFYYEILNSPDRACRLAKAAFDDAIAELDTLSEESYKDSTLIMQLLRDNLTLWTSDMQGDGEEQNKEALQDVEDENQ | 65% | prominent reduction in rotenone-induced toxicity | 40% |  |  | 
